In PMC6704105:

Target: PRMT5 (UniProt O14744)
Assay: co-IP with anti-PRMT5, JDP2 blot
Conditions: reference: wild-type JDP2; sites T116

binding against the reference: lost
Substance: JDP2 (from UniProt Q8WYK2) JDP2 T116A
